Source: patent publication US20210324080A1 (JIANGSU HUAIYU PHARMACEUTICAL, published 2021)
Like-named read-outs stand apart in the source and are kept apart here.

Tests used:
[1] = target: T1, CTLA-4-hFc (immunogen A; hFc-labeled CTLA-4 extracellular domain protein) (human, UniProt P16410 36-161); assay: receptor-ligand blocking assay: CTLA-4 protein, antibody titrated, blocked ligand B7.1, inhibition (%)
T1 construct: range 36-161; Made in HEK293 cells, purified on protein A; also called CLTA-4-hFc; CTLA-4 protein; not shown: human IgG Fc fragment (hFc) of the pCpC vector
T1 sequence (looked up): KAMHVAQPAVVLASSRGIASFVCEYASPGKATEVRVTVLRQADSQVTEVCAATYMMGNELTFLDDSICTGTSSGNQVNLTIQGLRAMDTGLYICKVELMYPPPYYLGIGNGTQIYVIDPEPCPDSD
Experimental: (§1) CTLA-4 extracellular domain protein (CTLA-4-hFc) was diluted with PBS to a final concentration of 1.0 μg/mL, and then added to a 96-well ELISA plate as 100 μl per well. The plate was covered with a plastic film and incubated overnight at 4° C. The plate was washed twice with plate washing solution [PBS containing 0.01% (v/v) Tween 20] on the next day, and added with blocking solution [PBS containing 0.01% (v/v) Tween 20 and 1% (w/w) BSA] and blocked at room temperature for 2 hours. […] After 2 hours, the plate was washed 3 times with a plate washing solution [PBS containing 0.01% (v/v) Tween 20]. HRP (horseradish peroxidase) labeled avidin diluent (purchased from Sigma) was added 100 microliters per well, and after the plate was incubated for 2 hours at 37° C., it was washed with plate washing solution [PBS containing 0.01% (v/v) Tween 20] for 3 times. […] TMB substrate was added to each well. After incubated at room temperature for 30 minutes, the plate was added with […] stop solution (1.0N HCl) to each well. An ELISA plate reader (SpectraMax 384plus, Molecular Device) was used to read the A450 nm value.

[2] = target: T2, recombinant His-labeled hCTLA-4 ECD protein (human, UniProt P16410 36-161); assay: SPR Biacore T200, antibody captured by anti-human Fc, 1:1 model
T2 construct: extracellular domain; also called human CTLA-4 ECD; not shown: His label
T2 sequence (looked up): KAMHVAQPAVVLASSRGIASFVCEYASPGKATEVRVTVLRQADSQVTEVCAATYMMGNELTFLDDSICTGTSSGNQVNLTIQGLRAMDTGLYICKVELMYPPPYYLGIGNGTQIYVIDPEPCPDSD
Experimental: Anti-human Fc IgG was fixed on flow cell 1 and 2. HBS-EP+ (10 mmol/L HEPES, 150 mmol/L NaCl, 3 mM EDTA, 0.05% P20, pH 7.4) was used as the running buffer, and anti-human Fc IgG was fixed using the fixing wizard template. The flow cells 1 and 2 connected in series with S CM5 sensor chip were activated with freshly mixed 50 mmol/L NHS and 200 mmol/L EDC. Anti-human Fc IgG was diluted to […] with 10 mmol/L NaAC (pH 4.5) and injected into activated flow cells 1 and 2. The remaining active coupling sites were blocked with 1 mol/L ethanolamine.
The recombinant His-labeled hCTLA-4 ECD protein was diluted to 50 nmol/L, and then serially diluted 4 times with HBS-EP+ buffer at a 2-fold ratio. […] Each antibody was injected into the CM5 sensor flow cell 2 at a flow rate of 10 μL/min to achieve a response of 230 RU. Then the prepared His-labeled hCTLA-4ECD protein was injected into flow cells 1 and 2 at a flow rate of 30 μL/min for 180 seconds. The buffer flow was maintained for 400 seconds for dissociation measurement (30 μL/min). To remove the tested antibody from the surface, 10 mmol/L glycine-HCl pH1.5 was injected for 20 seconds (30 μL/min). Flow cell 1 was used as a reference flow cell. The above steps were repeated for each concentration of serially diluted His-labeled CTLA-4ECD protein. The KD value of each antibody was evaluated using Biacore T200 evaluation software 1.0, and a 1:1 binding model was used to fit the data.

[3] = target: T1, CTLA-4-hFc (immunogen A; hFc-labeled …); assay: receptor-ligand blocking assay: CTLA-4 protein, antibody titrated, blocked ligand B7.1, inhibition (%); remark: listed apart in the source
Experimental: as §1

B1: 40C4C6 fully human CTLA-4 antibody (human IgG1, kappa) (antibody, V domains shown)
VH: QVQLVESGGGVVQPGRSLRLSCAASGFTFSSYGMHWVRQAPGKGLEWVAVIWYDGRNKYYADSVKGRFTISRDNSKNTLYLQMNSLRAEDTAVYYCARASGSYSYYFDYWGQGTLVTVSS
VL: DIQMTQSPSSLSASVGGRVTITCRASQSISSFLNWYQHELGKAPKLLIYGASSLQSGVPSRFSGSGSGTDFTLTISSLQPEDFATYYCQQTYSTPFTFGPGTKVDIK
notes: also called mAb09; mAb009
**Q.** B1 was tested. Which “IC50 (read off the curve)” value [1] did it give?
**A.** ~1 nM

**Q.** And the Kd [2]?
**A.** 2.36 nM

**Q.** And the koff [2]?
**A.** 0.0017 s⁻¹

**Q.** And the kon [2]?
**A.** 720000 M⁻¹ s⁻¹

B2: 31C12F3 fully human CTLA-4 antibody (human IgG1, kappa) (antibody, V domains shown)
VH: QVQLVESGGGVVQPGRSLILSCAASGFTFSSYGMHWVRQAPGKGLEWVAVVWYDGSNKYYADSVKGRFTISRDNSKNTLYLQMSSLRAEDTAVYYCARGGIVVPGLFEYWGQGSLVTVSS
VL: DIQMTQSPSSLSASVGDRVAITCRTSQSISNLLNWYQQKPGKAPELLIYAPSSFQSGVPSRFRGSGSGTDFTLTISSLQPEDFATYYCQQSYSTPFTFGPGTKVDIK
notes: also called mAb010
**Q.** How did the “IC50 (read off the curve)” value [1] turn out when B2 was run?
**A.** ~1 nM

**Q.** What about the Kd [2] of the same binder?
**A.** 2.62 nM

**Q.** And the koff [2]?
**A.** 0.00118 s⁻¹

**Q.** What about the kon [2] of the same binder?
**A.** 450000 M⁻¹ s⁻¹

B3: 92C8B6 fully human CTLA-4 antibody (human IgG1, kappa) (antibody, V domains shown)
VH: QVQLVESGGGVVQPGRSLRLSCAASGFTFSNFGMHWVRQAPGKGLEWVAVIWYDGSNKYYADSVKGRFTISRDNSKNTLFLQMNGLRAEDTAVYYCAKGGILMAGTLDYWGQGTLVTVSS
VL: DIQMTQSPSSLSASVGDRVTITCRASQSVSTYLNWYQQKPGKAPKLLIYAASSFQSGVPSRFSGSGSGTDFTLTISSLQPEDFATYFCQQSYSTPFTFGPGTKVDIK
notes: also called mAb42; mAb042
**Q.** B3 was tested. Which “IC50 (read off the curve)” value [3] did it give?
**A.** 1 to 2 nM

**Q.** What about the “IC50 (read off the curve)” value [1] of the same binder?
**A.** ~2 nM

**Q.** And the Kd [2]?
**A.** 2.52 nM

**Q.** And the koff [2]?
**A.** 0.00187 s⁻¹

**Q.** And the kon [2]?
**A.** 744000 M⁻¹ s⁻¹

B4: 97A8D1 fully human CTLA-4 antibody (human IgG1, kappa) (antibody, V domains shown)
VH: QVQLVESGGGVVQPGRSLRLSCVASGFTFNNYGMNWVRQAPGKGLEWVAVIWYGGRNKFYADSVKGRFTISRDNSKNTLYLEMNSLRAEDTAVYYCARADWGGWFDPWGQGTLVTVSS
VL: EIVLTQSPGTLSLSPGERATLSCRASQSVSSTYLAWYQQKPGQAPRLLIHGAFSRATGIPDRFSGSGSGPDFTLTISRLEPEDFAVYYCQQYGTSPFTFGPGTKVDIK
notes: also called mAb49; mAb049
**Q.** With B4 as the binder, how does the “IC50 (read off the curve)” value [3] read?
**A.** 1 to 2 nM

**Q.** And the Kd [2]?
**A.** 2.15 nM

**Q.** What about the koff [2] of the same binder?
**A.** 0.00087 s⁻¹

**Q.** And the kon [2]?
**A.** 405000 M⁻¹ s⁻¹
